For the experiment, the target named is T1, native GST (UniProt P08515 1-218 = GST).
T1 construct: also called rGST; GST alone
Nature of the experiment: pull-down of 35S-labeled rIL-16 on GST-coated glutathione-Sepharose beads, autoradiography (control for non-specific binding). The procedure:
Specificity of the interaction between rIL-16 and D3D4 was assessed by competition with an excess of unlabeled rIL-16. ³⁵S-labeled rIL-16 incubated with GST (lane 1); ³⁵S-labeled rIL-16 incubated with GST-D3D4 (lane 2); ³⁵S-labeled rIL-16 plus excess unlabelled rIL-16 incubated with GST-D3D4 (lane 3); ³⁵S-labeled rIL-16 plus 10 ug/ml peptide A (lane 4); ³⁵S-labeled rIL-16 plus 10 ug/ml peptide B (lane 5); ³⁵S-labeled rIL-16 plus 10 ug/ml peptide C (lane 6); ); ³⁵S-labeled rIL-16 plus 10 ug/ml peptide A and peptide B (lane 7). The arrow indicates the position of IL-16 on the gel. The identity of this band was re-confirmed by immunoblotting with anti-IL-16 antibody.
To investigate IL-16 interaction with the D3D4 of CD4, the GST-D3D4 fusion protein, or GST alone, was bound to the glutathione-conjugated Sepharose 4B beads. Five ul of the in vitro translation product containing ³⁵S-labeled rIL16 was added to 15 ul of the bead-bound proteins in 230 ul of PBS and 50 ul of NETN buffer (150 mM NaCl, 1 mM EDTA, 0.5% NP 40, and 50 mM Tris, pH 8.0). After incubating at 4° C. for 2 h, the beads were washed 3 times in NETN buffer. The GST-D3D4 or GST proteins were released from the beads by boiling in SDS gel loading buffer, and the supernatant was analyzed by 12% SDS-polyacrylamide gel electrophoresis (SDS-PAGE). The presence of ³⁵S-labeled mrIL16 was detected by autoradiography of the dried gel. […]

T1 sequence (P08515 whole entry): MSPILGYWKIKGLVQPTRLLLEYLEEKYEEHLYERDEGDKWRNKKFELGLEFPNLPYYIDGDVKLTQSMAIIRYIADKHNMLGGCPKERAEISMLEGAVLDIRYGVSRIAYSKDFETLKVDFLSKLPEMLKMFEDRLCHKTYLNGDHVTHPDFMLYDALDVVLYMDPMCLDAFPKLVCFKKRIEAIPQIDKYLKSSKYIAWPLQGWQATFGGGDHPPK

B1: 35S-labeled murine rIL-16 (in vitro transcription and translation product, C-terminal 119 amino acids) (ligand, mouse, UniProt O54824 1204-1322, looked up)
chain: DSAASASAASDISVESKEATVCTVTLEKTSAGLGFSLEGGKGSLHGDKPLTINRIFKGTEQGEMVQPGDEILQLAGTAVQGLTRFEAWNVIKALPDGPVTIVIRRTSLQCKQTTASADS
modifications: [35S] methionine
notes: domain: C-terminal 119 amino acids; also called radiolabeled murine IL-16; 35S-labeled rIL-16
Take B1: the binding result is “no binding”.
